40 sequences from the nanobody polyreactivity screen of Harvey et al. (2022) can be followed below.

A short description of the series: yeast display, Sf9 membrane polyspecificity reagent, FACS + sequencing; frameworks hold sequencing errors. The essentials: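 Using colony PCR, genes from sorted yeast display clones were amplified, then sequenced on MiSeq at 2 × 250 and filtered by CDR length. The clones had been stained with 10% biotinylated, detergent-solubilized Sf9 membrane reagent for 1 hour at 4 °C and sorted by FACS into low and high (top ~1%) gates on anti-HA and streptavidin fluorescence. Polyreactivity labels come from the gate of origin.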
As to “QVQLVESGRGLVQAGGSLRLSCAASGFTQPANGMGWYRQAPGIERELVAAISFIAGSTYYADSVKGRFTISRDNAKNTVYLQMNSLKPEDTAVYYCATLFPPSTIYDYWGQGTQVTVSS”, the “polyreactivity (PSR sort gate)” value was “low polyreactivity”. As for “QVQLVESGRGLVQAGGSLRLSCAASGIIFGGYSMGWYRQAPGKERELVAAISGIGSRTYYADSVKGRFTISRDNAKNTVYLQMNSLKPEDTAVYYCNADQVYGYNYWGQGTQVTVSS”, the “polyreactivity (PSR sort gate)” value is “high polyreactivity”.

As to “QVQLVESGRGLVQAGGSLRLSCAASGIIFYENAMGWYRQAPGKERELVADITQSGGSTYYADSVKGRFTISRDNAKNTVYLQMNSLKPEDTAVYYCAADGYDPYGGLYDYWGQGTQVTVSS”, the “polyreactivity (PSR sort gate)” value is on record as “low polyreactivity”. Take “QVQLVESGRGLVQAGGSLRLSCAASGRIFRYYAMGWYRQAPGKERELVATITDGGSTSYADSVKGRFTISRDNAKNTVYLQMNSLKPEDTAVYYCARDPLPSYWKVWSRPTFDYWGQGTQVTVSS”: the “polyreactivity (PSR sort gate)” value is “low polyreactivity”. In the case of “QVQLVESGRGLVQAGGSLRLSCAASGRIFTHYAMGWYRQAPGKERELVAAITSSSGSTYYADSVKGRFTISRDNAKNTVYLPMISLKPEDTAVYYCAASRYGKNGKFHYWGQGTQVTVSS” it was “high polyreactivity”; in that of “QVQLVESGRGLVQAGGSLRLSCAASGRIFVSNVMGWYRQAPGKERELVATITIGGITYYADSVKGRFTISRDNAKNTVYLQMNSLKPEDTAVYYCAADRRRFSPYGLYIHPGFDYWGQGTQVTVSS”, “low polyreactivity”. With “QVQLVESGRGLVQAGGSLRLSCAASGRTFDPYAMGWYRQAPGKERELVAAITSGDDTYYADSVKGRFTISRDYAKNTVYLQMNSLKPEHTAVYYCAADSFTPDYYYHDYWGQGTQVRVSS”, the “polyreactivity (PSR sort gate)” value was “low polyreactivity”. As to “QVQLVESGRGLVQAGGSLRLSCAASGRTFVYYAMGWYRQAPGKERELVAAISRSGSTYYADSVKGRFTISRDNAKNTVYLQMNSLKPEDTAVYYCARPGGPDRTSSPYPYPYGYWGQGTQVTVSS”, the “polyreactivity (PSR sort gate)” value is on record as “low polyreactivity”. The entry for “QVQLVESGRGLVQAGGSLRLSCAASGSIFKNYAMGWYRQAPGKERELVAAITRGTYYADSVKGRFTISRDNAKNTVYLQMNSLKPEDTAVYDCYREYWGRGYYRVRGEYDYWGQGTQVTVSS” is “low polyreactivity”; for “QVQLVESGRGLVQAGGSLRLSCAASGSIFSYYAMGWYIQAPGKERELVAAITVRGGSTYYADSVKGRFTISRDNAKNTVYLQMNSLKPEDTAVYYCAAVPGYTHLWGGPFDYWGQGTQVTVSS” it is “low polyreactivity”; for “QVQLVESGRGLVQAGGSLRLSCAASGSILTYYTMGWYRQAPGKERELVAAITRRGGSTYYADSVKGRFTISRDNAKNTVYLQMNRLKPEDTAVYYCNRVLSYHRHKLGMGYWGQGTHVTVSS” it is “high polyreactivity”.

On to “QVQLVESGRGLVQAGGSLRLSCAASGSTFAGYVMGWYRQAPGKERELVAAISGRGGNTYYADSVKGRFTISRDNAKNTVYIQINSLKPADTAVYYCAANLSRRYGYWGQGTQVTVSS”, for which the “polyreactivity (PSR sort gate)” value was “high polyreactivity”. Consider “QVQLVESGRGLVQAGGSLRLSCAASGSTFWNNGMGWYRQAPGKERELVAAINWSGDSTYYADSVKGRFTISRDNAKNTVYLQMNSLKPEDTAVYYCAAGYYTYSRRSSFFVAYGYWGQGTQVTVSS”, for which the “polyreactivity (PSR sort gate)” value was “low polyreactivity”. In the case of “QVQLVESGRGLVQAGGSLRLSCADSGRTFGYYGMGWYRQAPGKEREFVAAITRSGGSTYYADSVKGRFTISRDHAKNTVYLQMNSLKPEDTAVYYCAAAHLFTRSRPYDYWGQGTQVTVSS”, the “polyreactivity (PSR sort gate)” value is given as “high polyreactivity”. In the case of “QVQLVESGRGLVQAGGSLRLSCAPSGFTFNVNAMGWYRQAPGKERELVAAISSSGTRTYYADSVKGRFTISRDNAKNTFYLQMNSLKPEDTAVYYCGASGQAYSGDRMYYWGQGTQVTVSS”, the “polyreactivity (PSR sort gate)” value was “high polyreactivity”. On to “QVQLVESGRGLVQAGGSLRLSCASSGSIKQNAMGWNRQAPGKETELVAAIDWDGSSTYYADSVKGRFTISRDNAKNTVYLQMNSLKPEDTAVYYCAKGWYRIKRNDYWGQGTQVTVSS”, for which the “polyreactivity (PSR sort gate)” value is “low polyreactivity”. The entry for “QVQLVESGRGLVQAGGSLRLSCDASGFIFPWYAMGWYRQAPGKERELVAAITSGGSTTYADSVKGRFTISRDNAKNTVYLQMNSLKPEDTAVYYCAAAYPWGDYGVSDYDYWGQGTQVTVSS” is “high polyreactivity”; for “QVQLVESGRGLVQAGRTLRLSCAASGFIFQWYTMGWYRQAPGKDRELVADIRSGGDTNYADSVKGRFTISRDTAKNSVYLQMYSLKPEDTAVYYCATETFFPLRRASYGRKLGYWGQGTQVTVSS” it is “low polyreactivity”; for “QVQLVESGRGLVQAGVSLRLSCAASGSIFEQYAMGWYRQAPGKERELVAAITISGGGTFYADSVKGRFTISRDNAKNTVYLQMNSLKPEDTAVYYCAKRGYYFWSRKYGYWGQGTQVTVSS” it is “low polyreactivity”.

In the case of “QVQLVESGRGLVQEGGSLRLSCAASGRNVVFYTMGWNRQEPVKERELVATISIRGSTYYADSVKGRFTISRDNAKNTVYLKMNSLKPEDTAVYYCAAVYYSYYSFSYNYWGQGTVVTVSS”, the “polyreactivity (PSR sort gate)” value is “low polyreactivity”. The entry for “QVQLVESGVGIGQAGGSLRLTCAASGRTVSKYGKGWYRHAPGKEREMVAAISGRGGSTYYADSVKGRFTISRDHAKNTVYLQMNSLNPEDNAVYYCAQDLSYRPHGHGDGHYDFWGQGTQVTVSS” is “low polyreactivity”.

Take “QVQLVESGVGIVQAGGSLRLSCAASGSTYGYNAMGWYRQAPGKESEFVARIRSSGSTTYADSVKRRFTISRDNAMNTVYLLMNSLNPEDNAVYYWAARRYFYLVVYYSWGQCTQVTVSS”: the “polyreactivity (PSR sort gate)” value is reported as “high polyreactivity”.

Turning to “QVQLVESGVGIVQAGGSLRLSSAPSGRTFTWYAMGRTRQAPGKERELVAAITNGGRTYADSVKGRFTISRDNAKNTVYLQMNSLKPEDTAVYYCAKVQYRGYLPHQRGRERDYDYWGQGTQVTVSS”, the “polyreactivity (PSR sort gate)” value is “low polyreactivity”. In the case of “QVQLVESGVGIVQAGGSLRVSCAASGRIFYYYAMGWYRHAPGKERELVAVINSGDSTNYADSVKGRFTISRDNAKNSVYFQMNSLKPEDTAVYYCAKGVISDLDYWADYDYWGQGTQVSVSS” it was “low polyreactivity”.

On to “QVQLVESGVGLFQAGGSLRLSCAASGRIFTLYTMGWYRQAPGKEREFVAALSRTGGRTYYADSVKGRFTISRDNAKNTVYLQMNSLKPEDTAVYYCAARSQSYTTHRYYYWGQGSQVTVSS”, for which the “polyreactivity (PSR sort gate)” value is recorded as “high polyreactivity”. In the case of “QVQLVESGVGLFQAGGSLRLSCAPSGSTFIGYAMEWYRQAPGKERELVAAISWSGGRTYYADSVKGRFTISRDNAKNTVYLQMISLKPEDTAVYYCNTVPYRISVQFNYWGQGTQVTLSS” it was “high polyreactivity”; in that of “QVQLVESGVGLLQAGGSLRLSCADSGRIISGNAMVWYRQAPGKEREMVAAISSGGSTYYADSVKGRFTISRDNAMNTVYLQMNSLKPEATAVFYCNKRRGRKWPGNFSVVKLLMGSWGQGTQVTVSS”, “low polyreactivity”.

Take “QVQLVESGVGLVQAAGSLRLSCAASGSTFSSYAMGWYRQAPGKERELVAVISSRGSRTYYADSVKGRFTNSRDNAKNSVYLLMNSLKPEDTAVYYCAARAVKQYGNSYESWGQGTQVTVSS”: the “polyreactivity (PSR sort gate)” value is recorded as “high polyreactivity”. In the case of “QVQLVESGVGLVQAGGRLRLSCAASGLIFNDNMGWYRQSPGKEREVVAAISSSGGSTSYADSVKGRFTISRDNAKNTVYLQMNSLKPEDTAVYYCAADSYPAYLGFVGFDYWGQGTQVTVSS” it was “low polyreactivity”. In the case of “QVQLVESGVGLVQAGGRLRLSCAASGRIIYIYAMGWYRQAPGKERELVAAITASSGSTNYADSVKGRFTISRDNAKNTVYLQMNSLKPEDTAVYYCSAAPSRTLLRQTKYYYWGQGTQVTVSS” it was “low polyreactivity”; in that of “QVQLVESGVGLVQAGGSLGLTCAASGSIFYRYTMGWYREAPGKERELVAAISSDGDSTYYADSVKGRFTISRDNAKNTVYLQMNSLKPEDTAVYYCAADLEPYIGYHFYYWGQGTQVTVSS”, “low polyreactivity”. In the case of “QVQLVESGVGLVQAGGSLRFSCAASAMGWSRQAPGKERELVAVINSTGGSTYYADSVKGRFTISRDNAKNTVYLQMNSLKPDATAVYYCARVTRRGPGYTTLYSRYDYWGQGTQVSVSS” it was “low polyreactivity”; in that of “QVQLVESGVGLVQAGGSLRLICAASGFTFAKYAMGWYRQAPGKERELVAAISRSAGSTYYADSVKGRFTISRDYAKNTVYLQMNSLIPDDTAVYYCAADPLIYDDYYWGQGSQVTVSS”, “high polyreactivity”. Consider “QVQLVESGVGLVQAGGSLRLICAASGSTFGYYAMGWYRQAPGKERELVAAITGRGGSTYYADSVKGRFTISRDNAKNTVYLQMNSLKPEDTAVYYCAVGKYRLYYSGAYGFWGQGTQVTVSS”, for which the “polyreactivity (PSR sort gate)” value is on record as “high polyreactivity”. The entry for “QVQLVESGVGLVQAGGSLRLRCAASGFTFRYYAMGWNRQAPGKERELVATMSSAGTTNYADSVKGRFTISRDNAKNTVYLPMNSLKPEDTAVYYCAKDLYYRHWRGGFWGQGTQVTVSS” is “low polyreactivity”; for “QVQLVESGVGLVQAGGSLRLSCAACGSTFPINAMGWYRQAPGKESELVAAISWSAGSTHYADSVKGRFTISRDNAKNTVYLQMNSLKPEDTAVYYCAAETWGLGDYWGLGTQVTVSS” it is “low polyreactivity”; for “QVQLVESGVGLVQAGGSLRLSCAASGFIFNYNTMGWYRQAPGKERELVAAISSSGGSTYYADSVKGRFTISRDNAKNTVYLQMNSLKPEDTAVYYCAAGANAQRVPNGDYWGQGTQVTVSS” it is “low polyreactivity”. The entry for “QVQLVESGVGLVQAGGSLRLSCAASGFIFRYYTMGWYRPAPGKERELVAVITSGGTTYYADSVKGRFTISRDNAKNTVYLHMNSLIPEDTAVYYCAADYRPRLYGVGVDYWGQGSQVTVSS” is “low polyreactivity”.

Regarding “QVQLVESGVGLVQAGGSLRLSCAASGFIFSSYAMGWYRQAPGKERELVAAISRSGGRTYYADSVKGRFTISRDNAKNTVYLQMNSLKPEDTAVYYCDATWLGTDGDDYWGQGTQVTVSS”, the “polyreactivity (PSR sort gate)” value is on record as “high polyreactivity”. In the case of “QVQLVESGVGLVQAGGSLRLSCAASGFISVNNAMGWYRQAPGKERELVAAITDTDDSTYADSVKGRFTISRDNAKNTVYLQMNSLKPEDTAVYYCAAGIIYSNEPNITSYDYWGQGTQVTVSS” it was “low polyreactivity”.
